Data on 2 molecules can be found in patent publication US20260167712A1, “INHIBITORY ANTIBODIES AGAINST GLUT1” (ICOSAGEN CELL FACTORY OÜ, priority 2022, published 2026).

Experiment [1] has as its target T1, SLC2A4 pseudotyped VLPs (UniProt P14672 1-509).
T1 construct: also called SLC2A4 VLPs; GLUT4
T1 sequence: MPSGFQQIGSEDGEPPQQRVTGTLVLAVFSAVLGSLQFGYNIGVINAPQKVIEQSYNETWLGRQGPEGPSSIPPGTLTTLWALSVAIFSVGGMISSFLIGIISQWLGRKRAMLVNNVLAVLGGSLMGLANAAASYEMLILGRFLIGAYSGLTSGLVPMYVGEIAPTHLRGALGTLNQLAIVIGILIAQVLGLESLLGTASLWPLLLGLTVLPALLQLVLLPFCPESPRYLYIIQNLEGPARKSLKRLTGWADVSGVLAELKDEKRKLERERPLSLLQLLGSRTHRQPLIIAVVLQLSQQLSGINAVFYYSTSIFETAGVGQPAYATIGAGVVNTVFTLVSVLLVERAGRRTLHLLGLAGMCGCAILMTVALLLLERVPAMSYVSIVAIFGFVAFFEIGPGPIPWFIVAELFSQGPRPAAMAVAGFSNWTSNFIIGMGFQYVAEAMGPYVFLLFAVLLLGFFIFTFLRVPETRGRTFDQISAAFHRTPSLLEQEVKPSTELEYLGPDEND
Put plainly: ELISA on VLPs coated at 5 ug/mL, compared with MOCK VLPs. In general terms: ELISA stands for enzyme-linked immunosorbent assay.

Experiment [2] concerns the target T2, SLC2A4 pseudotyped VLPs (Homo sapiens, UniProt P14672).
T2 sequence (P14672 1-509): T1 sequence
Nature of the experiment: ELISA-based VLP binding assay, SLC2A4. The following applies: compared to MOCK VLPs, FIG. 3. The method, then:
(§1) An ELISA-based VLP binding assay was carried out to compare the EC50 values of antibody clones (FIG. 1). Similarly, ELISA based VLP binding assay was performed to compare the binding of the antibodies to different glucose transporters (FIG. 3). MaxiSorp™ high-capacity binding ELISA plate (Thermo Fisher Scientific, US) were coated with 5 μg/mL SLC2A1, SLC2A2, SLC2A3, SLC2A4 pseudotyped VLPs or MOCK VLPs in PBS overnight. The plate was washed and blocked for 1 h with 0.05% Tween 20, 2% BSA in PBS. Serial dilutions of antibodies were incubated on a washed plate for 1 hour, followed by a 1-hour incubation with goat anti-human IgG horse radish peroxidase (HRP) conjugated (Invitrogen) antibody. TMB (3,3′,5,5′-Tetramethylbenzidine) Solution VII (Biopanda Diagnostics) was used as a substrate for HRP and 0.5 M H2SO4 was used as stop solution. After every step, the wells were washed with 0.05% Tween 20, 0.1% Proclin 300 PBS solution. Absorption at 450 nm was measured with Thermo Scientific™ Multiskan™ FC Microplate Photometer. Exemplary wise used antibodies 1G2 #9, 2A2 #12, 2E5 #22, 5G5 #30, 6F12 #33, 7C3 #39 all bound SLC2A1 VLPs with low nanomolar EC50 values (FIG. 1).

For experiment [3], the target named is T3, SLC2A3 pseudotyped VLPs (Homo sapiens, UniProt P11169).
T3 sequence (P11169 1-496): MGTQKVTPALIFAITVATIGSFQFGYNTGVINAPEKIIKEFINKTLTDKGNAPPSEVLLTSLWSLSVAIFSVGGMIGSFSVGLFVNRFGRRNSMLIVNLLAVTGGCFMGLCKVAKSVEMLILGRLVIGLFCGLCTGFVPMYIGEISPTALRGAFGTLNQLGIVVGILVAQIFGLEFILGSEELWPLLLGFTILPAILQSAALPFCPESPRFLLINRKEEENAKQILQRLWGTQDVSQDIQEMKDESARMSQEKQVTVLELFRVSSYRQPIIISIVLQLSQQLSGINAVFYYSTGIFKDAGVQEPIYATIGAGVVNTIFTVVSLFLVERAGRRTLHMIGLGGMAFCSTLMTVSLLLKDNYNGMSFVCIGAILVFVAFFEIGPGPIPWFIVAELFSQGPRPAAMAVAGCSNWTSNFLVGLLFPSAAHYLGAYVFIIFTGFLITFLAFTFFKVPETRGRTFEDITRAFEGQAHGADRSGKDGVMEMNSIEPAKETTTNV
Put plainly: ELISA-based VLP binding assay, SLC2A3. Conditions: compared to MOCK VLPs, FIG. 3. The method, then: as §1

Experiment [4] deals with T4, HEK-293-ALL cells transfected with human SLC2A1 (Homo sapiens, UniProt P11166).
T4 construct: expressed in transfected cells; host or cells: HEK-293-ALL
T4 sequence (P11166 1-492): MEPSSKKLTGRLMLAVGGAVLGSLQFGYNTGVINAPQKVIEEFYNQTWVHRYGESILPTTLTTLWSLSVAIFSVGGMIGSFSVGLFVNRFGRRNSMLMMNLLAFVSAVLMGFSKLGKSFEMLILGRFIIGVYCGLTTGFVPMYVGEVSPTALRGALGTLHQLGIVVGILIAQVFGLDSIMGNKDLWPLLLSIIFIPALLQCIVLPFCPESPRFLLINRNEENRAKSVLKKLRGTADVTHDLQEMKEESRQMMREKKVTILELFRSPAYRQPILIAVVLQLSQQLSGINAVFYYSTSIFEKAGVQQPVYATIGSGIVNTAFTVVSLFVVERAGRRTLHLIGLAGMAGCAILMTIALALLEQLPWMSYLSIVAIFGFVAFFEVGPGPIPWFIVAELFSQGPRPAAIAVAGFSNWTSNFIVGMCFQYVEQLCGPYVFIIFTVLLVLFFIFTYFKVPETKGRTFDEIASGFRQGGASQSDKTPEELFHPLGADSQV
Put plainly: 2-Deoxyglucose uptake assay (Glucose Uptake-Glo). The format is cell-based. The following applies: 2-hour incubation, 0.35 nM to 6.89 μM, 1 mM 2DG for 20 min, FIG. 4. The method, then: To evaluate if the described anti-SLC2A1 antibodies inhibit glucose uptake, a commercial Glucose Uptake-Glo Assay kit (Promega) was utilized according to manufacturer's instructions. In short, HEK-293-ALL cells were transfected with human SLC2A1 expression plasmid and were incubated at 37° C. overnight in the presence of 5% CO2. Cells were washed with 0.5% BSA PBS twice and 7000 cells were plated per well into white clear bottom 96-well plates in 0.5% BSA PBS in the presence of 0.35 nM to 6.89 μM anti-SLC2A1 antibodies or glucose uptake inhibitor BAY-876 (CaymanChem). Cells were incubated for 2 hours at room temperature. Glucose uptake was initiated by the addition of 1 mM 2-deoxyglucose (2DG) and was allowed to proceed for 20 min at 37° C. in the presence of 5% CO2. After adding STOP and neutralization reagents included in the kit, luminescence was measured using GloMax Explorer microplate reader (Promega). Nonspecific luminescence was measured in lysates from cells without (2DG) being added. Data was normalized to nonspecific luminescence and to the average value of luminescence in the presence of no inhibitors.

Experiment [5] addresses T5, SLC2A1 pseudotyped VLPs (UniProt P11166 1-492).
T5 chain: T4 sequence (P11166 1-492)
Nature of the experiment: ELISA.

Entries after “also recorded” stand apart in the source; their conditions may differ.

B1: 2E5 #22 (antibody, V domains shown)
VH: AVTLDESGGGLQTPGGALSLVCKASGFTFSTKGMGWVRQTPGKGLEWVAGISSMRRYTYYAPAVKGRATISRDNGQSTVRLQLSSLRAEDSGTYYCARDATYCSWTTSTCGWSGGTIDAWGHGTEVIVSS
VL: ALTQPSSVSANLGGTVKITCSGGSGNYGWYQQKSPGSVPVTVIYSNDKRPSDIPSRFSGSGSGSTATLTITGVQVEDEAVYFCGSRDSSYVGLFGAGTTLTVL
Regarding B1, the binding result in experiment [1] is recorded as “no binding”. In addition, the “binding to SLC2A4 VLPs” value in experiment [2] is reported as “did not bind; also recorded: Some binding”. In addition, the “binding to SLC2A3 VLPs” value in experiment [3] is recorded as “did not bind; also recorded: Some binding”. Moreover, in experiment [4], the “glucose (2-deoxyglucose) uptake” value was “strong concentration dependent decrease”. Further, in experiment [5], the EC50 (as a rule, the concentration giving half of the maximal effect) stood at 0.5 nM.

B2: 6F12 #33 (antibody, V domains shown)
VH: AVTLDESGGGLQTPGGALSLVCKASGFTFSDHAIFWVRQAPDKGLEFVAAISSGTGSWTAYATVVKGRATISRDNGQSTVRLQLNNLRAADTATYYCAKGAGSACCYAGSIDAWGHGTEVIVSS
VL: ALTQPSSVSANPGETVKITCSGGSSSSYYGWYQQKSPGSAPVTLIYYNDKRPSDIPSRFSGSKSGSTATLTITGVQVEDEAVYYCGTGDGSFAIFGAGTTLTVL
As to B2, the binding result in experiment [1] is recorded as “no binding”. For the same molecule, in experiment [2], the “binding to SLC2A4 VLPs” value is recorded as “did not bind”. Further, the “binding to SLC2A3 VLPs” value in experiment [3] is on record as “did not bind”. Further, the “glucose (2-deoxyglucose) uptake” value in experiment [4] was “strong concentration dependent decrease”. This molecule gave an EC50 in experiment [5] of 0.6 nM.
